These results are taken from PMC10423226, “Identification of a drug binding pocket in TMEM16F calcium-activated ion channel and lipid scramblase” (Nature Communications, 2023).

The series deals with the molecule itself. Briefly: cryo-EM structure; TMEM16F in MSP2N2-SoyPC nanodiscs with PIP2 and 4 mM CaCl2, without drug or with 50 uM niclosamide or 100 uM 1PBC; no C2 symmetry imposed.

B1: TMEM16F (natural protein, UniProt Q6P9J9 1-911, looked up)
chain: MQMMTRKVLLNMELEEDDDEDGDIVLENFDQTIVCPTFGSLENQQDFRTPEFEEFNGKPDSLFFTDGQRRIDFILVYEDESKKENNKKGTNEKQKRKRQAYESNLICHGLQLEATRSVSDDKLVFVKVHAPWEVLCTYAEIMHIKLPLKPNDLKTRSPFGNLNWFTKVLRVNESVIKPEQEFFTAPFEKSRMNDFYILDRDSFFNPATRSRIVYFILSRVKYQVMNNVNKFGINRLVSSGIYKAAFPLHDCRFNYESEDISCPSERYLLYREWAHPRSIYKKQPLDLIRKYYGEKIGIYFAWLGYYTQMLLLAAVVGVACFLYGYLDQDNCTWSKEVCDPDIGGQILMCPQCDRLCPFWRLNITCESSKKLCIFDSFGTLIFAVFMGVWVTLFLEFWKRRQAELEYEWDTVELQQEEQARPEYEAQCNHVVINEITQEEERIPFTTCGKCIRVTLCASAVFFWILLIIASVIGIIVYRLSVFIVFSTTLPKNPNGTDPIQKYLTPQMATSITASIISFIIIMILNTIYEKVAIMITNFELPRTQTDYENSLTMKMFLFQFVNYYSSCFYIAFFKGKFVGYPGDPVYLLGKYRSEECDPGGCLLELTTQLTIIMGGKAIWNNIQEVLLPWVMNLIGRYKRVSGSEKITPRWEQDYHLQPMGKLGLFYEYLEMIIQFGFVTLFVASFPLAPLLALVNNILEIRVDAWKLTTQFRRMVPEKAQDIGAWQPIMQGIAILAVVTNAMIIAFTSDMIPRLVYYWSFSIPPYGDHTYYTMDGYINNTLSVFNITDFKNTDKENPYIGLGNYTLCRYRDFRNPPGHPQEYKHNIYYWHVIAAKLAFIIVMEHIIYSVKFFISYAIPDVSKITKSKIKREKYLTQKLLHESHLKDLTKNMGIIAERIGGTVDNSVRPKLE
modifications: glycans on the extracellular loops
notes: Sample in lipid nanodiscs (MSP2N2, SoyPC) with PIP2 and 4 mM CaCl2; also called mTMEM16F; TMEM16F dimer; source: HEK293s cells, extracted and purified in DDM/CHS, reconstituted in MSP2N2-SoyPC nanodiscs, FPLC
Consider B1, for which the “stoichiometry N” value stood at 2.

The stoichiometry N is a count of units in the complex or per binding partner.
